Residue numbers refer to the chain shown, from its start.
What was measured:
[1] = target: T1, KAE1;BUD32 N58R;CGI121;PCC1 (Arabidopsis thaliana;Arabidopsis …, UniProt O49653;Q94K14;Q6NMZ4;Q8GWD7 1-353;1-226;1-172;1-96, |N58R||); assay: MST; MST: 20 mM PBS pH 7.5, 300 mM NaCl, 0.05% Tween 20, 25 C, 50 nM RNA; EMSA: 20 mM Tris-HCl pH 7.5, 300 mM NaCl, 5 mM b-mercaptoethanol, 20% glycerol, agarose gel in Tris-glycine pH 8.0 (8.5 for FAM-RNA), 4 C; conditions: protein: recombinant;recombinant;recombinant;recombinant; tags: none (6His on partner PCC1);;6His (C-term);6His (C-term); chain copies: 2;2;2;2; label: 5' 6-FAM; tRNA cloverleaf
T1 sequence 1: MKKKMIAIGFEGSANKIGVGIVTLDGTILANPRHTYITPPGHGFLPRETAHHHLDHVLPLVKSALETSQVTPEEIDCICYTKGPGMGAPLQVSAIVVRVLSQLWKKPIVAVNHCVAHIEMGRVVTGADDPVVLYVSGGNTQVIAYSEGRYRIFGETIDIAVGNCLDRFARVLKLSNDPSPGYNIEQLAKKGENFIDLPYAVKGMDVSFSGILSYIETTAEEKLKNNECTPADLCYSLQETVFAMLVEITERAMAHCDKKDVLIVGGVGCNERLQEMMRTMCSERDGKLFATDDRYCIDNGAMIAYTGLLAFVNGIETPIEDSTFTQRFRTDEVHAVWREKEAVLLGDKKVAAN
T1 sequence 2: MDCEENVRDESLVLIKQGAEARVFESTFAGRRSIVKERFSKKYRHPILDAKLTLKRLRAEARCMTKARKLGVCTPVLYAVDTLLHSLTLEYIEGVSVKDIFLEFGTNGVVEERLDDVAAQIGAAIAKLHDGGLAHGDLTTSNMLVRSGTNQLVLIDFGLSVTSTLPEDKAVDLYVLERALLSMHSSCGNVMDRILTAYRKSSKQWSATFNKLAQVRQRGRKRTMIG
T1 sequence 3: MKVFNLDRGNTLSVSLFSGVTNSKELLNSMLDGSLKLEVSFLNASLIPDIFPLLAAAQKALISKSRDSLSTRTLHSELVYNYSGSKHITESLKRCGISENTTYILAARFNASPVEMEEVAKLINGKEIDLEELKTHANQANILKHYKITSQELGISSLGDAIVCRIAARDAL
T1 sequence 4: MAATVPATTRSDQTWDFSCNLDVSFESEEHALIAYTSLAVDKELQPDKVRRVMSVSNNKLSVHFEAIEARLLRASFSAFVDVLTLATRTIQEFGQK

BUD32;CGI121 = target: T2, BUD32;CGI121 (Arabidopsis thaliana;Arabidopsis …, UniProt Q94K14;Q6NMZ4 1-226;1-172, |); assay: as above; conditions: protein: recombinant;recombinant; tags: none (6His on partner CGI121);6His (C-term); copies: 1;1; label: 5' 6-FAM; tRNA cloverleaf
T2 sequence 1: T1 sequence 2 with R58N
T2 sequence 2: T1 sequence 3

[2] = target: T3, KAE1;BUD32 T162R;CGI121;PCC1 (Arabidopsis thaliana;Arabidopsis …, UniProt O49653;Q94K14;Q6NMZ4;Q8GWD7 1-353;1-226;1-172;1-96, |T162R||); assay: as above; conditions: protein: recombinant;recombinant;recombinant;recombinant; tags: none (6His on partner PCC1);;6His (C-term);6His (C-term); chain copies: 2;2;2;2; label: 5' 6-FAM; tRNA cloverleaf
T3 sequence 1: T1 sequence 1
T3 sequence 2: T1 sequence 2 with R58N, T162R
T3 sequence 3: T1 sequence 3
T3 sequence 4: T1 sequence 4

[3] = target: T4, KAE1;BUD32 L165K;CGI121;PCC1 (Arabidopsis thaliana;Arabidopsis …, UniProt O49653;Q94K14;Q6NMZ4;Q8GWD7 1-353;1-226;1-172;1-96, |L165K||); assay: EMSA; MST: 20 mM PBS pH 7.5, 300 mM NaCl, 0.05% Tween 20, 25 C, 50 nM RNA; EMSA: 20 mM Tris-HCl pH 7.5, 300 mM NaCl, 5 mM b-mercaptoethanol, 20% glycerol, agarose gel in Tris-glycine pH 8.0 (8.5 for FAM-RNA), 4 C; conditions: protein: recombinant;recombinant;recombinant;recombinant; tags: none (6His on partner PCC1);;6His (C-term);6His (C-term); chain copies: 2;2;2;2; label: 5' 6-FAM; tRNA cloverleaf
T4 sequence 1: T1 sequence 1
T4 sequence 2: T1 sequence 2 with R58N, L165K
T4 sequence 3: T1 sequence 3
T4 sequence 4: T1 sequence 4

B1: 5'-6FAM-tRNAArgCCU (structured_RNA)
RNA: GCGCCUGUAGCUCAGUGGAUAGAGCGUCUGUUUCCUAAGCAGAAGGUCGUAGGUUCGACCCCUACCUGGCGCGCCA
Kd [1]: 9.81 ± 2.73 µM
Kd (BUD32;CGI121): 61.6 ± 15 µM
Kd [2]: 10.5 ± 2.99 µM
binding result [3]: binds
